Where no end group is shown, it is not given here.
B2: His-tagged MYO10^FERM (recombinant MYO10 MyTH4/FERM domain) (domain or fragment)
chain: TPTQQLIQDIKENCLNSDVVEQIYKRNPILRYTHHPLHSPLLPLPYGDINLNLLKDKGYTTLQDEAIKIFNSLQQLESMSDPIPIIQGILQTGHDLRPLRDELYCQLIKQTNKVPHPGSVGNLYSWQILTCLSCTFLPSRGILKYLKFHLKRIREQFPGSEMEKYALFTYESLKKTKCREFVPSRDEIEALIHRQEMTSTVYCHGGGSCKITINSHTTAGEVVEKLIRGLAMEDSRNMFALFEYNGHVDKAIESRTVVADVLAKFEKLAATSEVGDLPWKFYFKLYCFLDTDNVPKDSVEFAFMFEQAHEAVIHGHHPAPEENLQVLAALRLQYLQGDYTLHAAIPPLEEVYSLQRLKARISQSTKTFTPCERLEKRRTSFLEGTLRRSFRTGSVVRQKVEEEQMLDMWIKEEVSSARASIIDKWRKFQGMNQEQAMAKYMALIKEWPGYGSTLFDVECKEGGFPQELWLGVSADAVSVYKRGEGRPLEVFQYEHILSFGAPLANTYKIVVDERELLFETSEVVDVAKLMKAYISMIVKKRYSTTRSASSQGSSR
modifications: RED-tris-NTA dye on the His tag (Monolith His-Tag Labeling Kit)

Columns and labels:
[1] = target: T1, His-tagged MYO10^FERM (recombinant MYO10 MyTH4/FERM domain) (UniProt Q9HD67 1504-2058, RED-tris-NTA dye on the His tag (Monolith His-Tag Labeling Kit)); assay: MST; His-tagged recombinant FERM domains labelled with RED-tris-NTA at 20 nM, integrin tail peptides at increasing concentration; three independent experiments pooled; conditions: both partners purified
T1 construct: Vector pET151; also called recombinant MYO10^FERM; MYO10 FERM domain; source: E. coli BL-21(DE3), purified (Protino Ni-TED column)
T1 sequence (looked up): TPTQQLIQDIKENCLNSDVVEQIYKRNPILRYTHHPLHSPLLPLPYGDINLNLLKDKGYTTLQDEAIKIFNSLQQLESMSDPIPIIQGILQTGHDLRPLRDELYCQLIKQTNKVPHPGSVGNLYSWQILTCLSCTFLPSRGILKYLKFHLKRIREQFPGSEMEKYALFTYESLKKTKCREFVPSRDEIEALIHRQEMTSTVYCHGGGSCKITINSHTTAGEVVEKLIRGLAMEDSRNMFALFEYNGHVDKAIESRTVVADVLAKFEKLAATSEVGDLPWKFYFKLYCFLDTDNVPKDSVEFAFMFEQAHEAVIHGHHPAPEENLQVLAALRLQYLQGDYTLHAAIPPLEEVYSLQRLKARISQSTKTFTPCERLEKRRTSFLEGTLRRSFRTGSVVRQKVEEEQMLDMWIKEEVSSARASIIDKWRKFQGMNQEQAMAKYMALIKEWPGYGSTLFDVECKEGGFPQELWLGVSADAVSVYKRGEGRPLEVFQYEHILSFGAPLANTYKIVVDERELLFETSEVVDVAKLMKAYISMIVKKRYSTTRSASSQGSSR

[2] = target: T2, His-TLN1^FERM (recombinant talin-FERM domain) (UniProt P26039 86-403, RED-tris-NTA dye on the His tag (Monolith His-Tag Labeling Kit)); assay: as above; conditions: both partners purified
T2 construct: Talin-1 (TLN1) FERM domain; source: E. coli BL-21(DE3), purified (Protino Ni-TED column)

[3] = target: T3, ITGA5 tail peptide (Homo sapiens); assay: MST
T3 chain: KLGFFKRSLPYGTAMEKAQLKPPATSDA

[4] = target: B2; assay: MST

B1: wild-type β1-integrin tail peptide (peptide)
peptide: KLLMIIHDRREFAKFEKEKMNAKWDTGENPIYKSAVTTVVNPKYEGK
modifications: also: biotinylated, position not given here
notes: Integrin beta-1 (ITGB1) cytoplasmic tail; also called β-tail peptide; integrin β tail; source: synthetic peptide (custom, LifeTein)
Question: What does the source list for B1?
Answer: Kd [1]: 25.1 µM; Kd [2]: 4.7 µM

Question: B2 was tested. Which Kd [3] did it give?
Answer: The Kd was 18.3 µM.

B3: His-TLN1^FERM (recombinant talin-FERM domain) (domain or fragment)
chain: RPLKIRMLDGTVKTIMVDDSKTVTDMLMTICARIGITNHDEYSLVRELMEEKKDEGTGTLRKDKTLLRDEKKMEKLKQKLHTDDELNWLDHGRTLREQGVEEHETLLLRRKFFYSDQNVDSRDPVQLNLLYVQARDDILNGSHPVSFDKACEFAGFQCQIQFGPHNEQKHKAGFLDLKDFLPKEYVKQKGERKIFQAHKNCGQMSEIEAKVRYVKLARSLKTYGVSFFLVKEKMKGKNKLVPRLLGITKECVMRVDEKTKEVIQEWSLTNIKRWAASPKSFTLDFGDYQDGYYSVQTTEGEQIAQLIAGYIDIILKKK
modifications: RED-tris-NTA dye on the His tag (Monolith His-Tag Labeling Kit)
Question: B3 was tested. Which Kd [3] did it give?
Answer: The Kd was 557 µM.

B4: conserved region of the α2-integrin tail, peptide (peptide)
peptide: WKLGFFKRKYEKM
modifications: also: biotinylated, position not given here
notes: Integrin alpha-2 (ITGA2), conserved membrane-proximal region of the cytoplasmic tail; also called ITGA2^WT; ITGA2; source: synthetic peptide (custom, LifeTein)
Question: B4 was tested. Which Kd [4] did it give?
Answer: Its Kd is 15.8 µM.

Question: Does B4 bind [1]?
Answer: Result: binds

From article PMC8456781, “Myosin-X and talin modulate integrin activity at filopodia tips” (Cell Reports, 2021)
